# Measured values: the RNAGym collection of RNA variant scans (doi:10.7554/elife.90254)
# B1: OR4K15 (parent)
# chain: GUUAACGGUCAUAGGCCAUGGAAACUAGGAGCACCAUUUCGCUGCCAGUGAAGAAAUGAACAAAGAAAAUCUGGGCCAGGCAGGCAUCAAAAGAAAUAGUCUUGCGCUCAACCAGAAAGUCUGUAAUCAUUUUAAGGGUA
# Variants of: B1
# Assay: self-cleavage, relative activity (ratio to wild type); higher = more cleavage; in vitro, sequencing; the parent is a self-cleaving ribozyme
row,Variant,self-cleavage
1,GUUAACGGUUAUAGGCCAUGGAAACUAGGAGCACCAUUUCGCUGCCAGUGAAGAAAUGAACAAAGAAAAUCUGGGCCAGGCAGGCAUCAAAAGAAAUAGUCUUGCGCUCAACCAGAAAGUCUGUGAUCAUUUUAAGGGUA,0.61
2,GUUAGCGGUCAUAGGCCAUGGAAACUAGGAGCACCAUUUCGCUGACAGUGAAGAAAUGAACAAAGAAAAUCUGGGCCAGGCAGGCAUCAAAAGAAAUAGUCUUGCGCUCAACCAGAAAGUCUGUAAUCAUUUUAAGGGUA,0.99
3,GUUAACGGUCAAAGGCCAUGGAAACUAGGAGCACCAUUUCGCUGCCAGUGAAGAAAUGAACAAAGAAAAUCUGGGCCAGGCAGGCAUCAAAAGAAAUAGUCUUGCGCUCAACCAGAAGGUCUGUAAUCAUUUUAAGGGUA,1.04
4,GUUAACGGUCAUAGGCCAUGGAAACUAGGAGCACCAUUUCGCUGCCAGUGAAGAAAUGAACUAAGAAAAUCUGGGCCAGGCAGGCAUCAAGAGAAAUAGUCUUGCGCUCAACCAGAAAGUCUGUAAUCAUUUUAAGGGUA,0.94
5,GUUAACGGUCAUAGGCCAUGGAAGCUAGGCGCACCAUUUCGCUGCCAGUGAAGAAAUGAACAAAGAAAAUCUGGGCCAGGCAGGCAUCAAAAGAAAUAGUCUUGCGCUCAACCAGAAAGUCUGUAAUCAUUUUAAGGGUA,1.22
6,GUUAACGGUCAUAGGCCAUGGAAACUAGGAGCACCAUUUCGCUGCAAGUGAAGAAAUGAACAAAGAAAAUCUGGGCCAGGCAGGCAUCAAAAGAAAUAGUCUUGCGCUCAACCAGAAAGCCUGUAAUCAUUUUAAGGGUA,0.87
7,GUUAACGGUCAUAGGCCAUGGAAGCUAGGAGCACCAUUUCGCUGCCAGUGAAGAAAUGAACAAAGAAAAUCUGGGCCAGGCAGGCAUCAAAAGAAAUAGUCAUGCGCUCAACCAGAAAGUCUGUAAUCAUUUUAAGGGUA,0.51
8,GUUAACGGUCAUAGGCCAUGGAAACUAGGAGCACCAUUUCGCUGCCAGUGAAGAAACGAACAAAGAAAAUCUGAGCCAGGCAGGCAUCAAAAGAAAUAGUCUUGCGCUCAACCAGAAAGUCUGUAAUCAUUUUAAGGGUA,0.28
9,GUUAGCGGUCAUAGGCCAUGGAAACUAGGAGCACCAUAUCGCUGCCAGUGAAGAAAUGAACAAAGAAAAUCUGGGCCAGGCAGGCAUCAAAAGAAAUAGUCUUGCGCUCAACCAGAAAGUCUGUAAUCAUUUUAAGGGUA,0.58
10,GUUAACGGUCAUAGGCCAUGGAAACUAGGAGCACCAUUUCGCUGCCAGUGAAGAAAUGAACAAAGAAAAUCUAGGCCAGGCAGGCAUCAAAAGAAAUAGUCUUGCGCUCAACCAGAAAGUCUGUAAUCAUUUUAAGGGUA,0.07
11,GUUAACGGUCAUAGGCCAUGGAAACUAGGAGCACCAUUUCGCUGCCAGUGGAGAAAUGAACAAAGAAAAUCUGGGCCAGGCAGGCAUCAAAAGAAAUAGUCUUGCGCUCAACCAGAAAGUCUGUAAUCAUAUUAAGGGUA,0.59
12,GUUAACGGUCGUAGGCCAUGGAAACUAGGAGCACCAUUUCGCUGCCAGUGAAGAAAUGAGCAAAGAAAAUCUGGGCCAGGCAGGCAUCAAAAGAAAUAGUCUUGCGCUCAACCAGAAAGUCUGUAAUCAUUUUAAGGGUA,0.86
13,GUUAACGGUCAUAGGCCAUGGAAACUAGGCGCACCAUUUCGCUGCCAGUGAAGAAAUGAACAAAGAAAAUCUGGGCCAGGCAGGCAUCAAAAGAAAUAGUCUUGCGCUCAACCAGAAAGUCUGUAAUCAUUCUAAGGGUA,1.12
14,GUUAACGGUCAUAGGCCAUGGAAACUAGGAGCACCAUUUCGCUGCCAGUGAAGAAAUGAACAAAGAAAAUCUGGGCCAGGCAGGCAUCAAAGGAAAUAGUCUUGCGCUCAACCAGAAAGUCUGUAAUCAUUUUUAGGGUA,2.03
15,GUUAACGGUCAUAGGCCAUGGAAACUAGGAGCACCAUUUCGCUGCCAGUGAAGAAAUGAACAAAGAAAAUCUGGGCCAGGCAGGCAUCAAAAGAAAUAGUCUUGCGCUCAAACAGAAAGUCUGUAAUCGUUUUAAGGGUA,0.01
16,GUUAACGGUCAUUGGCCAUGGAAACUAGGAGCACCAUUUCGCUGCCAGUGAAGAAAUGAACGAAGAAAAUCUGGGCCAGGCAGGCAUCAAAAGAAAUAGUCUUGCGCUCAACCAGAAAGUCUGUAAUCAUUUUAAGGGUA,0.9
17,GUAAACGGUCAUAGGCCAUGGAAACUAGGAGCACCAUUUCGCUGCCAGUGAAGAAAUGAACAAAUAAAAUCUGGGCCAGGCAGGCAUCAAAAGAAAUAGUCUUGCGCUCAACCAGAAAGUCUGUAAUCAUUUUAAGGGUA,0.33
18,GUUAACGGUCAUAGGCCGAGGAAACUAGGAGCACCAUUUCGCUGCCAGUGAAGAAAUGAACAAAGAAAAUCUGGGCCAGGCAGGCAUCAAAAGAAAUAGUCUUGCGCUCAACCAGAAAGUCUGUAAUCAUUUUAAGGGUA,1.57
19,GUUAACGGUCAUAGGCCAUGGAAGCUAGGAGCACCAUUUCGCUGCCAGUGAAGAAAUGAACAAAGAAAAUCUGGGCCAGGCAGGCAUCAAAAGAAUUAGUCUUGCGCUCAACCAGAAAGUCUGUAAUCAUUUUAAGGGUA,0.93
20,GUUAACGGUCAUAGGCCAUGGAAACUAGGAGCACCAUUUCGCUGCCAGUGAAGAAACGAACAAAGAAAAUCUGGGCCAGGCAGGCAUCAAAAGAAACAGUCUUGCGCUCAACCAGAAAGUCUGUAAUCAUUUUAAGGGUA,1.09
21,GUUAACGGUCAUAGGCCAUGGAACCUAGGAGCACCAUUUCGCUGCCAGUGAAGAAAUGAACAAAGAAAAUCUGGGCCAGGCAGGCAUCGAAAGAAAUAGUCUUGCGCUCAACCAGAAAGUCUGUAAUCAUUUUAAGGGUA,1.68

row,Variant,self-cleavage
1,GUUAACGGUCAUAGGCCAUGGAAACUAGGAGCACCAUUUCGCUGCCAGUGAAGAAAUGAACAAAGAAAAUCUGGGCCAGGCAGGCAUCUAAAGAAAUAGUCUUCCGCUCAACCAGAAAGUCUGUAAUCAUUUUAAGGGUA,0.01
2,GUUAACGGCCAUAGGCCAUGGAAACUAGGAGCACCAUUUCGCUGCCAGUGAAGAAAUGAACAAAGAAAAUCUGGGCCAGGCAGGCAUCAAAAGAAAUAGUCUUGCGCUCAACCAGAAUGUCUGUAAUCAUUUUAAGGGUA,0.88
3,GUUAACGGUCAUAGGCCAUGGAAACUAGGAGCACCAUUUCGCCGCCAGUGAAGAAAUGAACAAAGAAAAUCUGGGCCAGGCAGGCAUCAAAAGAAAUAGUCUUGCGCGCAACCAGAAAGUCUGUAAUCAUUUUAAGGGUA,0.02
4,GUUAACGGUCAUAGGCCAUGGAGACUAGGAGCGCCAUUUCGCUGCCAGUGAAGAAAUGAACAAAGAAAAUCUGGGCCAGGCAGGCAUCAAAAGAAAUAGUCUUGCGCUCAACCAGAAAGUCUGUAAUCAUUUUAAGGGUA,0.84
5,GUUAACGGUCAUAGGCCAUGGAAACUAGGAGCACCAUUUCGCUGCCAGUGAAGAAAUGAACAAAGAAAAUCUGGGCCAGGCAGGCAUCAAAAGAAAUAGUCUUGCGCUCAACCAGAAAGUCCGUAGUCAUUUUAAGGGUA,0.76
6,GUUAACGGUCAUAGGCCAUGGAAACUAGGAGCACCAUUUCGCUGCCAGUGAAGAAAUGAACAAAGAAAAUCUGGGCCAGGCAGGCAUCCAAAGAAAUAGUCUUGCGCUCAACCAGUAAGUCUGUAAUCAUUUUAAGGGUA,0.32
7,GUUAACGGUCAUAGGCCAUGGAAACUAGGAGCACCAUUUCGCUGCCAGUGAAGAAAUGAACUAAGAAAAUCUGGGCCAGGCAGGCAUCAAAAGAAAUAGUCUUGCGCUCAACCAGAAAGUCUGUAAUCAUCUUAAGGGUA,1.2
8,GUUAACGGUCAUAGGCCAUGGAAACUAGGAGCACCAUCUCGCUGCCAGUGAAGAAAUGAACAAAGAAAAUCUGGGCCAGGCAGGCAUCAAAAGAAAUAGUCUUGCGCUCAACCAGAAAGUCUGUAAUCAUUUUAAGUGUA,2.1
9,GUUAACGGUCAUAGGCCAUGGAAACUAGGAGCACCAUUUCGCUGCCAGUGAAGGAAUGAACAAAGAAAAUCUGGGCCAGGCAGGCAUCAAAAGAAAUAGUCUCGCGCUCAACCAGAAAGUCUGUAAUCAUUUUAAGGGUA,0.91
10,GUUAACGGUCAUAGGCCAUGGAAACUAGGAGCACCAUUUCGCUGCCAGUGAAGAAAUGAACAAAGAAAAUCUGGGCCAGGCAGGCAUCAAAAGAAAUAGUCUUGCGCUCAACCAGAAAGUUUGUAAUCAUUUUAAGGGUA,1.65
11,GUAAACGGUCAUAGGCCAUGGAAACUAGGAGCACCAUUUCGCUGCCAGUGAAGAAAUGAACAAAGAAAAUCUGGGCCAGGCAGGCAUCAAAAGAAAUAGUCUUGCGCUCAACCAGAAAGUCUGUAAACAUUUUAAGGGUA,1.84
12,GUUAACGGUCAUAGGCCAUGGAAACUAGGAGCACCAUUUCGCUGCCAGUGAAGAAAUGAACAGAGAAAAUCUGGGCCAGGCAGGCAUCAAAAGAAAUAGUCAUGCGCUCAACCAGAAAGUCUGUAAUCAUUUUAAGGGUA,1.39
13,GUUAACGGUCAUAGGCCAUGGAAACUAGGAGCACCAUUUCGCUGCCAGUGAAGAAAUGAACAAAGAAAAUCUGGGCCAGGCAGGCAUCAAGAGAAAUAGUCUUGAGCUCAACCAGAAAGUCUGUAAUCAUUUUAAGGGUA,0.03
14,GUAAACGGUCAUAGGCCAUGGAAACUAGGAGCACCAUUUCGCUGCCAGUGAAGAAAUGAACAAAGAAAAUCUGGGCCAGGCAGGCAUCAAAAGAAAUAGUCUUGCGCUCAGCCAGAAAGUCUGUAAUCAUUUUAAGGGUA,0.08
15,GUUAACGGUCGUAGGCCAUGGAAACUAGGAGCACCAUUUCGCUGCCAGUGAAGAAAUGAACAAAGAAAAUCUGGGCCAGGCAGGCAUCAAAAGAAAUAGUCUUGCGCUCAACCAGAAAGUCUGUAAUCAUGUUAAGGGUA,1.52
16,GUUAACGGCCAUAGGCCAUGGAAACUAGGAGCACCAUUUCGCUGCCAGUGAAGAAAUGAACAAAGAAAAUCUGGGCCAGGCAGGCAUCAAAAGGAAUAGUCUUGCGCUCAACCAGAAAGUCUGUAAUCAUUUUAAGGGUA,1.35
17,GUUAACGGCCAUAGGCCAUGGAAACUAGGAGCACCAUUUCGCUGCCAGUGAAGAAAUGAACAAAGAAAAUCUGGGCCAGGCAGGCAUCAAAAGAAAUAGUCUUGCGCUCAACCAGAGAGUCUGUAAUCAUUUUAAGGGUA,1.91
18,GUUAACGGUCAUAGGCCAUGGACACUAGGAGCACCAUUUCGCUGCCAGUGAAGAAAUGUACAAAGAAAAUCUGGGCCAGGCAGGCAUCAAAAGAAAUAGUCUUGCGCUCAACCAGAAAGUCUGUAAUCAUUUUAAGGGUA,1.77
19,GUUAACGGUCAUAGGCCAUGGAAACUAGGAGCACCAUUUCGCUGCCAGUGAAUAAAUGAACAAAGAAAAUCUGGGCCAGGCAGGCAUCAAAAGAAAUAGUCUUGCGCUCAACCAGAAAGUCUGUAAACAUUUUAAGGGUA,1.92
20,GUUAACGGUCAUAGGCCAUGGAAACUAGGAGCACCAUUUCGCUGCCAGUGAAGAAAUGAACAAAGAAAAUCUGGGCCAGGCAGGCAUCGAAAGAAAUAGCCUUGCGCUCAACCAGAAAGUCUGUAAUCAUUUUAAGGGUA,2
